Results reported in patent US20250320295A1 (INHIBRX BIOSCIENCES, published 2025).
Substitutions are numbered along the chain they refer to. Names and notes keep the numbering of the source.

B1: hzB7v29-xELL-Fc (Fc fusion)
chain: QVQLVQSGGGEVQPGGSLRLSCAASGFTFDDYAMSWVRQAPGKGLEWVSTITWDAEGTYYAAPVKGRFTISRDNAKNTVYLQMSSLRAEDTAVYYCAKGSPELQYDTWGQGTLVTVKPDKTHTCPPCPAPGGPSVFLFPPKPKDTLMISRTPEVTCVVVDVSHEDPEVKFNWYVDGVEVHNAKTKPREEQYNSTYRVVSVLTVLHQDWLNGKEYKCKVSNKALPAPIEKTISKAKGQPREPQVYTLPPSRDELTKNQVSLTCLVKGFYPSDIAVEWESNGQPENNYKTTPPVLDSDGSFFLYSKLTVDKSRWQQGNVFSCSVMHEALHNHYTQKSLSLSPGK
notes: Homodimeric VHH-human IgG1 Fc xELL fusion
B2: hzB7v41-xELL-Fc (Fc fusion)
chain: B1 chain with E56G, K117R
notes: as for B1
B3: hzB7v35-xELL-Fc (Fc fusion)
chain: B1 chain with Q13K
notes: as for B1
B4: hzB7v30-xELL-KiH Fc-IL-2 mutant (Fc fusion)
chain 1: B1 chain with E56G, Y59D, Y244C, T261S, L263A, Y302V, H330R
chain 2: QVQLVQSGGGEVQPGGSLRLSCAASGFTFDDYAMSWVRQAPGKGLEWVSTITWDAGGTDYAAPVKGRFTISRDNAKNTVYLQMSSLRAEDTAVYYCAKGSPELQYDTWGQGTLVTVKPDKTHTCPPCPAPGGPSVFLFPPKPKDTLMISRTPEVTCVVVDVSHEDPEVKFNWYVDGVEVHNAKTKPREEQYNSTYRVVSVLTVLHQDWLNGKEYKCKVSNKALPAPIEKTISKAKGQPREPQVYTLPPCRDELTKNQVSLWCLVKGFYPSDIAVEWESNGQPENNYKTTPPVLDSDGSFFLYSKLTVDKSRWQQGNVFSCSVMHEALHNHYTQKSLSLSPG
notes: Knob-in-hole heterodimer: VHH on the N-terminus of each Fc, mutant IL-2 only on the knob Fc; not shown: mutant, attenuated IL-2 fused to the C-terminus of the knob Fc
B5: hzB7v33-xELL-KiH Fc-IL-2 mutant (Fc fusion)
chain 1: B1 chain with D54S, Y244C, T261S, L263A, Y302V, H330R
chain 2: B4 chain 2 with D54S, G56E, D59Y
notes: as for B4
B6: hzB7v39-xELL-KiH Fc-IL-2 mutant (Fc fusion)
chain 1: B1 chain with Q13K, D54S, Y244C, T261S, L263A, Y302V, H330R
chain 2: B4 chain 2 with Q13K, D54S, G56E, D59Y
notes: as for B4
B7: hzB7v37-xELL-KiH Fc-IL-2 mutant (Fc fusion)
chain 1: B1 chain with Q13K, E56G, Y244C, T261S, L263A, Y302V, H330R
chain 2: B4 chain 2 with Q13K, D59Y
notes: as for B4
B8: hzB7v34-xELL-KiH Fc-IL-2 mutant (Fc fusion)
chain 1: B1 chain with D54S, E56G, Y59D, Y244C, T261S, L263A, Y302V, H330R
chain 2: B4 chain 2 with D54S
notes: as for B4
B9: hzB7v25-xELL-P329G-KiH Fc-IL-2 mutant (Fc fusion)
chain 1: QVQLVQSGGGEVQPGGSLRLSCAASGFTFDDYAMSWVRQAPGKGLEWVSTITWSAEGTDYAESVKGRFTISRDNAKNTVYLQMSSLRAEDTAVYYCAKGSPELQYDTWGQGTLVTVKPDKTHTCPPCPAPGGPSVFLFPPKPKDTLMISRTPEVTCVVVDVSHEDPEVKFNWYVDGVEVHNAKTKPREEQYNSTYRVVSVLTVLHQDWLNGKEYKCKVSNKALGAPIEKTISKAKGQPREPQVCTLPPSRDELTKNQVSLSCAVKGFYPSDIAVEWESNGQPENNYKTTPPVLDSDGSFFLVSKLTVDKSRWQQGNVFSCSVMHEALHNRYTQKSLSLSPG
chain 2: B4 chain 2 with D54S, G56E, A62E, P63S, P224G
notes: as for B4
B10: hzB7v28-xELL-P329G-KiH Fc-IL-2 mutant (Fc fusion)
chain 1: B9 chain 1 with S54D, E62A, S63P
chain 2: B4 chain 2 with G56E, P224G
notes: as for B4
B11: hzB7v27-xELL-P329G-KiH Fc-IL-2 mutant (Fc fusion)
chain 1: B9 chain 1 with S54D, D59Y
chain 2: B4 chain 2 with G56E, D59Y, A62E, P63S, P224G
notes: as for B4
B12: hzB7v24-xELL-P329G-KiH Fc-IL-2 mutant (Fc fusion)
chain 1: B9 chain 1 with D30S, D31S, S54D
chain 2: B4 chain 2 with D30S, D31S, G56E, A62E, P63S, P224G
notes: as for B4
B13: hzB7v23-xELL-P329G-KiH Fc-IL-2 mutant (Fc fusion)
chain 1: B9 chain 1 with D31S, S54D
chain 2: B4 chain 2 with D31S, G56E, A62E, P63S, P224G
notes: as for B4
B14: hzB7v26-xELL-P329G-KiH Fc-IL-2 mutant (Fc fusion)
chain 1: B9 chain 1 with S54D, E56G
chain 2: B4 chain 2 with A62E, P63S, P224G
notes: as for B4

Molecular target: T1, Cynomolgus monkey CD8a (cynomolgus monkey)
T1 construct: whole, on cells; On transfected HEK293F cells (full length) or natively on cynomolgus PBMC T cells; also called cynomolgus CD8a-FL; cynomolgus monkey CD8α
Assay: flow cytometry, cynomolgus PBMC, PI-CD3+CD4- gate
Description: Binding of four polypeptides comprising a humanized CD8a-binding VHH domain fused to an xELL fc region was assessed by flow cytometry on isolated human T cells and on isolated human or cynomolgus monkey peripheral blood mononuclear cells (PBMC). The isolated cells were plated in a 96-well plate at 200,000 cells per well for cynomolgus monkey PBMC, and 100,000 cells per well for human T cells in FACS buffer (PBS, 1% BSA, 0.1% NaN₃, pH 7.4). […] FACS buffer alone was used as a secondary antibody-only control. Polypeptide dilutions were added to an equal volume of cells, and assay plates were incubated for 30 minutes at 4° C. After washing twice with 150 μL of FACS buffer per well, the cells were resuspended in FACS buffer with a fluorescently labeled anti-human IgG antibody diluted 1:1000 to detect CD8α binding, fluorescently labeled anti-CD3 antibody (clone SP34.2, 1:50, for PBMC preparations only), and fluorescently labeled anti-CD4 antibody (clone OKT4, 1:100). Propidium iodide (PI) was added at 1:2000 to distinguish live cells from dead cells. Assay plates were incubated at 4° C. for 30 minutes. After one additional wash with 150 μL of FACS buffer CD8α binding was detected by flow cytometry on PI−(CD3+) CD4− cells. Binding was measured on these cell populations as mean fluorescence intensity (MFI) at 647 nm. Flow cytometric detection was performed on an ACEA Biosciences Novocyte-Quanteon Flow Cytometer. The data were plotted and analyzed using GraphPad Prism analysis software. The results are shown in Table 12 and 13 and in FIGS. 10A-D.

Question: For B1, which Kd is on record?
Answer: 0.0317 nM

Question: B2 was tested. Which Kd did it give?
Answer: 0.0499 nM

Question: For B3, which Kd is on record?
Answer: 0.0236 nM

Molecular target: T2, Human CD8a (human, UniProt P01732 22-235)
T2 construct: also called CD8α; human CD8a-FL
Assay: flow cytometry, isolated human T cells, PI-CD4- gate (table title says transfected HEK293F cells)
Description: Binding of polypeptides comprising a humanized CD8a-binding VHH domain, an Fc region, and, in certain polypeptides, a mutated, attenuated IL-2 fused to the C-terminus of the Fc region, was assessed by flow cytometry on isolated human T cells. […] Complexes or polypeptides that are not labeled “KiH” form homodimers under physiologic conditions. The isolated cells were plated in a 96-well plate at 50,000 cells per well in FACS buffer (PBS, 1% BSA, 0.1% NaN₃, pH 7.4). Test polypeptides were then diluted to 2× the final concentration of 200 nM, and a 5-fold serial dilution was made. FACS buffer with no polypeptide was used as a secondary antibody-only control. Test polypeptides were added to an equal volume of cells, and assay plates were incubated for 30 minutes at 4° C. After washing twice with 150 μL of FACS buffer per well, the cells were resuspended in FACS buffer with a fluorescently-labeled anti-human IgG antibody diluted 1:1000 to detect CD8α binding and fluorescently labeled anti-CD4 antibody (clone OKT4, 1:200). Propidium iodide (PI) was added at 1:2000 to distinguish live cells from dead cells. Assay plates were incubated at 4° C. for 30 minutes. After one additional wash with 150 μL of FACS buffer, polypeptide bound to CD8α was detected by flow cytometry on PI-CD4− and on PI-CD4+ cells. Binding was measured on these cell populations as mean fluorescence intensity (MFI) at 647 nm. Flow cytometric detection was performed on an ACEA Biosciences Novocyte-Quanteon Flow Cytometer. The data were plotted and analyzed using GraphPad Prism analysis software.

T2 sequence (P01732 22-235): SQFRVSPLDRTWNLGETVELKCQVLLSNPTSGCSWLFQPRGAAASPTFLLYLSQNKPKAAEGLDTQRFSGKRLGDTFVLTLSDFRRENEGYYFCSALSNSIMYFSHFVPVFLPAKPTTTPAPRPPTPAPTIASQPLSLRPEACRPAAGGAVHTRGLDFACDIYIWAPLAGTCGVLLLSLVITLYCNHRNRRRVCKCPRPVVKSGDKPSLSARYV

Question: What does the source list for B4?
Answer: Bmax (MFI): 247000 MFI; Kd: 0.0943 nM

Question: For B5, which Kd is on record?
Answer: 0.139 nM

Question: For B6, which Kd is on record?
Answer: 0.148 nM

Question: Which results are given for B7?
Answer: Bmax (MFI): 272000 MFI; Kd: 0.0884 nM

Question: B8 was tested. Which “Bmax (MFI)” value did it give?
Answer: 76100 MFI

Question: What about the Kd of the same binder?
Answer: 4.05 nM

Molecular target: T2, Human CD8a
Assay: flow cytometry, HEK293F cells transfected with human CD8a (citrine+ gate)
Description: Binding of polypeptides comprising a humanized CD8a-binding VHH domain, an Fc region, and, in certain polypeptides, a mutated, attenuated IL-2 fused to the C-terminus of the Fc region, was assessed by flow cytometry on HEK293F cells transiently transfected with a plasmid encoding human CD8α or CD8b chains. […] Complexes or polypeptides that are not labeled “KiH” form homodimers under physiologic conditions. The transfected cells were plated in a 96-well plate at 50,000 cells per well in FACS buffer (PBS, 1% BSA, 0.1% NaN₃, pH 7.4). Test polypeptides were then diluted to 2× the final concentration of 500 nM, and a 6-fold serial dilution was made. FACS buffer with no polypeptide was used as a secondary antibody-only control. Test polypeptides were added to an equal volume of cells, and assay plates were incubated for 30 minutes at 4° C. After washing twice with 150 μL of FACS buffer per well, the cells were resuspended in FACS buffer with a fluorescently-labeled anti-human Fc antibody diluted 1:1000 to detect CD8 binding. Assay plates were incubated at 4° C. for 30 minutes. After one additional wash with 150 μL of FACS buffer, polypeptide bound to CD8 was detected by flow cytometry on cells positive for the transfection marker citrine. Binding was measured on these cell populations as mean fluorescence intensity (MFI) at 647 nm. Flow cytometric detection was performed on an IntelliCyt iQue Screener Plus. The data were plotted and analyzed using GraphPad Prism analysis software.

Question: Which results are given for B9?
Answer: Bmax (MFI): 1.45e+07 MFI; Kd: 3.28 nM

Question: With B10 as the binder, how does the “Bmax (MFI)” value read?
Answer: 1.37e+07 MFI

Question: And the Kd?
Answer: 2.84 nM

Question: Which “Bmax (MFI)” value does the source give for B11 here?
Answer: 1.45e+07 MFI

Question: And the Kd?
Answer: 3.18 nM

Question: Which results are given for B12?
Answer: Bmax (MFI): 1.28e+07 MFI; Kd: 6.54 nM

Question: Which “Bmax (MFI)” value does the source give for B13 here?
Answer: 1.43e+07 MFI

Question: And the Kd?
Answer: 3.9 nM

Question: With B14 as the binder, how does the “Bmax (MFI)” value read?
Answer: 1.52e+07 MFI

Question: And the Kd?
Answer: 4.55 nM
